Source: US20210388087A1 (Chugai, published 2021)

B1: H183/L072 VL T97A (antibody, name in Kabat numbering, V domains shown)
VH: QVQLVESGGGLVQPGRSLRLSCAASGFTFSNAWMHWVRQAPGKGLEWVAQIKDKGNAYAAYYAPSVKGRFTISRDDSKNSIYLQMNSLKTEDTAVYYCHYVHYASASTVLPAFGVDAWGQGTTVTVSS
VL: DIVMTQSPLSLPVTPGEPASISCQASQELVHMNRNTYLHWYQQKPGQAPRLLIYKVSNRFPGVPDRFSGSGSGTDFTLKISRVEAEDVGVYYCAQGTSVPFAFGQGTKLEIK
notes: Dual-Ig
B2: H183/L072 VL T97I (antibody, name in Kabat numbering, V domains shown)
VH: QVQLVESGGGLVQPGRSLRLSCAASGFTFSNAWMHWVRQAPGKGLEWVAQIKDKGNAYAAYYAPSVKGRFTISRDDSKNSIYLQMNSLKTEDTAVYYCHYVHYASASTVLPAFGVDAWGQGTTVTVSS
VL: DIVMTQSPLSLPVTPGEPASISCQASQELVHMNRNTYLHWYQQKPGQAPRLLIYKVSNRFPGVPDRFSGSGSGTDFTLKISRVEAEDVGVYYCAQGTSVPFIFGQGTKLEIK
notes: Dual-Ig
B3: H183/L072 VL T97M (antibody, name in Kabat numbering, V domains shown)
VH: QVQLVESGGGLVQPGRSLRLSCAASGFTFSNAWMHWVRQAPGKGLEWVAQIKDKGNAYAAYYAPSVKGRFTISRDDSKNSIYLQMNSLKTEDTAVYYCHYVHYASASTVLPAFGVDAWGQGTTVTVSS
VL: DIVMTQSPLSLPVTPGEPASISCQASQELVHMNRNTYLHWYQQKPGQAPRLLIYKVSNRFPGVPDRFSGSGSGTDFTLKISRVEAEDVGVYYCAQGTSVPFMFGQGTKLEIK
notes: Dual-Ig
B4: H183/L072 VL T97K (antibody, name in Kabat numbering, V domains shown)
VH: QVQLVESGGGLVQPGRSLRLSCAASGFTFSNAWMHWVRQAPGKGLEWVAQIKDKGNAYAAYYAPSVKGRFTISRDDSKNSIYLQMNSLKTEDTAVYYCHYVHYASASTVLPAFGVDAWGQGTTVTVSS
VL: DIVMTQSPLSLPVTPGEPASISCQASQELVHMNRNTYLHWYQQKPGQAPRLLIYKVSNRFPGVPDRFSGSGSGTDFTLKISRVEAEDVGVYYCAQGTSVPFKFGQGTKLEIK
notes: Dual-Ig
B5: H183/L072 VL T97L (antibody, name in Kabat numbering, V domains shown)
VH: QVQLVESGGGLVQPGRSLRLSCAASGFTFSNAWMHWVRQAPGKGLEWVAQIKDKGNAYAAYYAPSVKGRFTISRDDSKNSIYLQMNSLKTEDTAVYYCHYVHYASASTVLPAFGVDAWGQGTTVTVSS
VL: DIVMTQSPLSLPVTPGEPASISCQASQELVHMNRNTYLHWYQQKPGQAPRLLIYKVSNRFPGVPDRFSGSGSGTDFTLKISRVEAEDVGVYYCAQGTSVPFLFGQGTKLEIK
notes: Dual-Ig
B6: H183/L072 VL T97Q (antibody, name in Kabat numbering, V domains shown)
VH: QVQLVESGGGLVQPGRSLRLSCAASGFTFSNAWMHWVRQAPGKGLEWVAQIKDKGNAYAAYYAPSVKGRFTISRDDSKNSIYLQMNSLKTEDTAVYYCHYVHYASASTVLPAFGVDAWGQGTTVTVSS
VL: DIVMTQSPLSLPVTPGEPASISCQASQELVHMNRNTYLHWYQQKPGQAPRLLIYKVSNRFPGVPDRFSGSGSGTDFTLKISRVEAEDVGVYYCAQGTSVPFQFGQGTKLEIK
notes: Dual-Ig
B7: H183/L072 VL T97N (antibody, name in Kabat numbering, V domains shown)
VH: QVQLVESGGGLVQPGRSLRLSCAASGFTFSNAWMHWVRQAPGKGLEWVAQIKDKGNAYAAYYAPSVKGRFTISRDDSKNSIYLQMNSLKTEDTAVYYCHYVHYASASTVLPAFGVDAWGQGTTVTVSS
VL: DIVMTQSPLSLPVTPGEPASISCQASQELVHMNRNTYLHWYQQKPGQAPRLLIYKVSNRFPGVPDRFSGSGSGTDFTLKISRVEAEDVGVYYCAQGTSVPFNFGQGTKLEIK
notes: Dual-Ig
B8: H183/L072 VL T97F (antibody, name in Kabat numbering, V domains shown)
VH: QVQLVESGGGLVQPGRSLRLSCAASGFTFSNAWMHWVRQAPGKGLEWVAQIKDKGNAYAAYYAPSVKGRFTISRDDSKNSIYLQMNSLKTEDTAVYYCHYVHYASASTVLPAFGVDAWGQGTTVTVSS
VL: DIVMTQSPLSLPVTPGEPASISCQASQELVHMNRNTYLHWYQQKPGQAPRLLIYKVSNRFPGVPDRFSGSGSGTDFTLKISRVEAEDVGVYYCAQGTSVPFFFGQGTKLEIK
notes: Dual-Ig
B9: H183/L072 VL T97G (antibody, name in Kabat numbering, V domains shown)
VH: QVQLVESGGGLVQPGRSLRLSCAASGFTFSNAWMHWVRQAPGKGLEWVAQIKDKGNAYAAYYAPSVKGRFTISRDDSKNSIYLQMNSLKTEDTAVYYCHYVHYASASTVLPAFGVDAWGQGTTVTVSS
VL: DIVMTQSPLSLPVTPGEPASISCQASQELVHMNRNTYLHWYQQKPGQAPRLLIYKVSNRFPGVPDRFSGSGSGTDFTLKISRVEAEDVGVYYCAQGTSVPFGFGQGTKLEIK
notes: Dual-Ig
B10: H183/L072 VL T97D (antibody, name in Kabat numbering, V domains shown)
VH: QVQLVESGGGLVQPGRSLRLSCAASGFTFSNAWMHWVRQAPGKGLEWVAQIKDKGNAYAAYYAPSVKGRFTISRDDSKNSIYLQMNSLKTEDTAVYYCHYVHYASASTVLPAFGVDAWGQGTTVTVSS
VL: DIVMTQSPLSLPVTPGEPASISCQASQELVHMNRNTYLHWYQQKPGQAPRLLIYKVSNRFPGVPDRFSGSGSGTDFTLKISRVEAEDVGVYYCAQGTSVPFDFGQGTKLEIK
notes: Dual-Ig
B11: H183/L072 VL T97P (antibody, name in Kabat numbering, V domains shown)
VH: QVQLVESGGGLVQPGRSLRLSCAASGFTFSNAWMHWVRQAPGKGLEWVAQIKDKGNAYAAYYAPSVKGRFTISRDDSKNSIYLQMNSLKTEDTAVYYCHYVHYASASTVLPAFGVDAWGQGTTVTVSS
VL: DIVMTQSPLSLPVTPGEPASISCQASQELVHMNRNTYLHWYQQKPGQAPRLLIYKVSNRFPGVPDRFSGSGSGTDFTLKISRVEAEDVGVYYCAQGTSVPFPFGQGTKLEIK
notes: Dual-Ig
B12: H183/L072 VL T97R (antibody, name in Kabat numbering, V domains shown)
VH: QVQLVESGGGLVQPGRSLRLSCAASGFTFSNAWMHWVRQAPGKGLEWVAQIKDKGNAYAAYYAPSVKGRFTISRDDSKNSIYLQMNSLKTEDTAVYYCHYVHYASASTVLPAFGVDAWGQGTTVTVSS
VL: DIVMTQSPLSLPVTPGEPASISCQASQELVHMNRNTYLHWYQQKPGQAPRLLIYKVSNRFPGVPDRFSGSGSGTDFTLKISRVEAEDVGVYYCAQGTSVPFRFGQGTKLEIK
notes: Dual-Ig
B13: H183/L072 VL T97E (antibody, name in Kabat numbering, V domains shown)
VH: QVQLVESGGGLVQPGRSLRLSCAASGFTFSNAWMHWVRQAPGKGLEWVAQIKDKGNAYAAYYAPSVKGRFTISRDDSKNSIYLQMNSLKTEDTAVYYCHYVHYASASTVLPAFGVDAWGQGTTVTVSS
VL: DIVMTQSPLSLPVTPGEPASISCQASQELVHMNRNTYLHWYQQKPGQAPRLLIYKVSNRFPGVPDRFSGSGSGTDFTLKISRVEAEDVGVYYCAQGTSVPFEFGQGTKLEIK
notes: Dual-Ig
B14: H183/L072 VL T97H (antibody, name in Kabat numbering, V domains shown)
VH: QVQLVESGGGLVQPGRSLRLSCAASGFTFSNAWMHWVRQAPGKGLEWVAQIKDKGNAYAAYYAPSVKGRFTISRDDSKNSIYLQMNSLKTEDTAVYYCHYVHYASASTVLPAFGVDAWGQGTTVTVSS
VL: DIVMTQSPLSLPVTPGEPASISCQASQELVHMNRNTYLHWYQQKPGQAPRLLIYKVSNRFPGVPDRFSGSGSGTDFTLKISRVEAEDVGVYYCAQGTSVPFHFGQGTKLEIK
notes: Dual-Ig

These binders were tested against T1, Human CD137 ECD (human) (assay: Biacore SPR, vs parent H183/L072).
T1 construct: entry includes C-terminal His-tag and biotin acceptor peptide; also called human CD137 extracellular domain; 4-1BB
T1 sequence (chain, as listed by the source limits assumed): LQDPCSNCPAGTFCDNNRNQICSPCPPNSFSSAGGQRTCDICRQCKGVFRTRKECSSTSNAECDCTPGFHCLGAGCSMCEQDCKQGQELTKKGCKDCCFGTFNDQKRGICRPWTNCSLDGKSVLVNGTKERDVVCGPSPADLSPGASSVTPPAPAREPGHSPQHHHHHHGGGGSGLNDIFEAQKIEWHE

First: B1
Second: B2
The “fold change of affinity” value of the first is lower: 0.6 fold for the first, 1.3 fold for the second.

B3 and B4 are the same in “fold change of affinity” value: 1.1 fold for the first, 1.1 fold for the second.

Compared with B5, B6 is higher in “fold change of affinity” value: 0.3 fold for the first, 0.7 fold for the second.

First: B7
Second: B8
The “fold change of affinity” value of the first is higher: 0.5 fold for the first, 0.3 fold for the second.

First: B9
Second: B10
The “fold change of affinity” value of the first is higher: 0.6 fold for the first, 0 fold for the second.

First: B11
Second: B12
The “fold change of affinity” value of the first is lower: 0 fold for the first, 0.9 fold for the second.

Going from B13 to B14, the “fold change of affinity” value rises from 0.4 fold to 0.6 fold.
